Our source for the Km values is patent publication US8975370B2, “Inhibitor proteins of a protease and use thereof” (Universite de Lausanne, priority 2003, dated 2015).

The data set relates to T1, Cc1cc(=O)oc2cc(NC(=O)[C@H](CCCNC(=N)N)NC(=O)[C@H](Cc3ccccc3)NC(=O)OCc3ccccc3)ccc12.
T1 construct: substrate Z-FR-AMC
Put plainly: Km of PK for its fluorogenic substrate (used for ka correction, eq 2). The data set is classed as biochemical, human. To be noted: other: PK, substrate Z-FR-AMC, kinetics in 50 mM Tris pH 7.5, 150 mM NaCl, 0.05% Triton X-100, 0.01% BSA, 25° C. The source says: hK2 and hK3 (PSA) were purified from human semen as previously described (Frenette G, Gervais Y, Tremblay R R, Dube J Y. 1998 “Contamination of purified prostate-specific antigen preparations by kallikrein hK2” J Urol 159, 1375-8), anti-hK2 and anti-PSA monoclonal antibodies were a gift from Professor R R Tremblay, Laval University, Canada. Human chymotrypsin (Chtr), urokinase plasminogen activator (uPA), human kallikrein hK1, human plasma kallikrein (PK), human neutrophil elastase (HNE) and commercial ACT (human plasma α1-antichymotrypsin) were purchased from Calbiochem. […]
The association rate constants for interactions of hK2, chymotrypsin, PK and HNE with different rACTs were determined under pseudo-first order conditions using the progress curve method (Morrison J F, Walsh C T. 1988 “The behavior and significance of slow-binding enzyme inhibitors” Adv. Enzymol. Relat. Areas Mol. Biol 61, 201-301). […] Each reaction was made in reaction buffer (50 mM Tris pH 7.5, 150 mM NaCl, 0.05% Triton X-100, 0.01% BSA) at 25° C. for 45 min and the rate of product formation was measured using a FLx800 fluorescence 96-well microplate reader (Biotek, USA). […]
For each inhibitor, a kobs was calculated, for four different concentrations of inhibitors, by non linear regression of the data using equation 1. […]

human plasma kallikrein (PK) (Homo sapiens), sequence (chain, as listed by the source): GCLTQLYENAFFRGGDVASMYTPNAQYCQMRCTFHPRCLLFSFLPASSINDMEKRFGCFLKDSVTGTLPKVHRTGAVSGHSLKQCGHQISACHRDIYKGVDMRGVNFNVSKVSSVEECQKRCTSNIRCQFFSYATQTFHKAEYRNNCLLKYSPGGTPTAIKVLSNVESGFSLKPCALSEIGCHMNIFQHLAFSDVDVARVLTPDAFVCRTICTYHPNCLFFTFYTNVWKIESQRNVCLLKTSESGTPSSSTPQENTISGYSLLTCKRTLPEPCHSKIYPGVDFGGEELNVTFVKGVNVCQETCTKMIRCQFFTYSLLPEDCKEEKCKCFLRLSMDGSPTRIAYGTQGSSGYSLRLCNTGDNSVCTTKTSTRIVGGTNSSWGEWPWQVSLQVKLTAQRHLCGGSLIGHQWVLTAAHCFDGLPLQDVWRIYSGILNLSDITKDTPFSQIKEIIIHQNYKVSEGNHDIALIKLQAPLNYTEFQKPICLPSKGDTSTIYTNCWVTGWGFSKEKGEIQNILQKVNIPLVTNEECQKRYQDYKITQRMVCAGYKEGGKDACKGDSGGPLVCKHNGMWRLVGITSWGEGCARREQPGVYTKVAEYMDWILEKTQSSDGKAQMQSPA

For orientation: Km means the concentration of substrate that gives half-maximal velocity. For the substance “human plasma kallikrein (PK) (Homo sapiens)”, the Km is 170 µM.
